In US20260232827A1 (Zymeworks, published 2026):
Where two headings read alike, the source gives them in different places.

B1: Upifitamab (v40885, wild-type Fc) (antibody, human IgG1, kappa)
heavy 1: GQVQLVQSGAEVVKPGASVKMSCKASGYTFTGYNIHWVKQAPGQGLEWIGAIYPGNGDTSYKQKFRGRATLTADTSTSTVYMELSSLRSEDSAVYYCARGETARATFAYWGQGTLVTVSSASTKGPSVFPLAPSSKSTSGGTAALGCLVKDYFPEPVTVSWNSGALTSGVHTFPAVLQSSGLYSLSSVVTVPSSSLGTQTYICNVNHKPSNTKVDKKVEPKSCDKTHTCPPCPAPELLGGPSVFLFPPKPKDTLMISRTPEVTCVVVDVSHEDPEVKFNWYVDGVEVHNAKTKPREEQYNSTYRVVSVLTVLHQDWLNGKEYKCKVSNKALPAPIEKTISKAKGQPREPQVYVYPPSRDELTKNQVSLTCLVKGFYPSDIAVEWESNGQPENNYKTTPPVLDSDGSFALVSKLTVDKSRWQQGNVFSCSVMHEALHNHYTQKSLSLSPG
heavy 2: not shown
light: GDIQMTQSPSSLSASVGDRVTITCSASQDIGNFLNWYQQKPGKTVKVLIYYTSSLYSGVPSRFSGSGSGTDYTLTISSLQPEDFATYYCQQYSKLPLTFGQGTKLELKRTVAAPSVFIFPPSDEQLKSGTASVVCLLNNFYPREAKVQWKVDNALQSGNSQESVTEQDSKDSTYSLSSTLTLSKADYEKHKVYACEVTHQGLSSPVTKSFNRGEC
B2: v29456-MT-GGFG-AM-Compound 139 DAR 8 (antibody, human IgG1, kappa)
heavy: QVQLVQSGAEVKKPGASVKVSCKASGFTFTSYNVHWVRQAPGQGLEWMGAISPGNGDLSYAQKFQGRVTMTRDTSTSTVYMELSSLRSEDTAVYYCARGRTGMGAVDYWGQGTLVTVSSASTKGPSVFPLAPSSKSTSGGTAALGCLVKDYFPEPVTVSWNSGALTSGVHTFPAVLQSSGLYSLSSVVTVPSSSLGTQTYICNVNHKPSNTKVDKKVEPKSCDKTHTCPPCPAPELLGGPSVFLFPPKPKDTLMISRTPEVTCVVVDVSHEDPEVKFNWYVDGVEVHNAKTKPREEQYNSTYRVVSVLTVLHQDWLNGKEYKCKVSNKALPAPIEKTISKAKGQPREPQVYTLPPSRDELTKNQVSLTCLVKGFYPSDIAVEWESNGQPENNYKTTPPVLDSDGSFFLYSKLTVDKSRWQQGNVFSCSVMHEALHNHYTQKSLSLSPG
light: DVQMTQSPSSLSASVGDRVTITCRASQDVYSYLNWYQQKPGKAVKLLIYYTSRLQSGVPSRFSGSGSGTDYTLTISSLQPEDFATYYCQQYNIFPWTFGQGTKLEIKRTVAAPSVFIFPPSDEQLKSGTASVVCLLNNFYPREAKVQWKVDNALQSGNSQESVTEQDSKDSTYSLSSTLTLSKADYEKHKVYACEVTHQGLSSPVTKSFNRGEC
modifications: drug-linker MT-GGFG-AM-Compound 139 on cysteine thiols after TCEP reduction, positions not given; DAR 8 for the whole antibody
B3: v29456-MT-GGFG-AM-Compound 141 DAR 8 (antibody, human IgG1, kappa)
heavy: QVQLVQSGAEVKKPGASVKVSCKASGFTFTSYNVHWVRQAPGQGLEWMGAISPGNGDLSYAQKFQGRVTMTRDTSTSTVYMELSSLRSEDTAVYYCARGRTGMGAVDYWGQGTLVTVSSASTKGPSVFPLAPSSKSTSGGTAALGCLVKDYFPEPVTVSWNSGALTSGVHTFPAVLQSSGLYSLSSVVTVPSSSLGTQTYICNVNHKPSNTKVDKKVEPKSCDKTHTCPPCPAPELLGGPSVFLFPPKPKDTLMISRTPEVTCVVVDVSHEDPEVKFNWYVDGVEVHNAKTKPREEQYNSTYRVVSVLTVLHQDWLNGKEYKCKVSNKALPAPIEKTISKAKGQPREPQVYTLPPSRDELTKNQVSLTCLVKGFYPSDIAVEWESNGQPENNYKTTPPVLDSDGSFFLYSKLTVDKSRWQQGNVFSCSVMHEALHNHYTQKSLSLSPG
light: B2 light
modifications: drug-linker MT-GGFG-AM-Compound 141 on cysteine thiols after TCEP reduction, positions not given; DAR 8 for the whole antibody
B4: v29456-MC-GGFG-AM-DXd1 DAR 8 (antibody, human IgG1, kappa)
heavy: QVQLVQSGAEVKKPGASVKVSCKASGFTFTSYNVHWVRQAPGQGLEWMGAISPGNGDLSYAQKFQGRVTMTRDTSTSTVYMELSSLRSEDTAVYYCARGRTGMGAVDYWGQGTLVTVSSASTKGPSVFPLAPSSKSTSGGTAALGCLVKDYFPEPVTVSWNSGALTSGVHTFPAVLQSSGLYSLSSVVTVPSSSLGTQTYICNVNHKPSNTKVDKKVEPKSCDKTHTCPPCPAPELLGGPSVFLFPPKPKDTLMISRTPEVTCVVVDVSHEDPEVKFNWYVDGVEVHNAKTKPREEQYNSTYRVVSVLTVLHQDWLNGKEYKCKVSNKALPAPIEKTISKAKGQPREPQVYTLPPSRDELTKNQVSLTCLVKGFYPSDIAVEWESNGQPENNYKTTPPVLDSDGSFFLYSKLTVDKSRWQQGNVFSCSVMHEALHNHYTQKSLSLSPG
light: B2 light
modifications: drug-linker MC-GGFG-AM-DXd1 on cysteine thiols after TCEP reduction, positions not given; DAR 8 for the whole antibody
B5: v29456-MC-GGFG-Compound 141 DAR 8 (antibody, human IgG1, kappa)
heavy: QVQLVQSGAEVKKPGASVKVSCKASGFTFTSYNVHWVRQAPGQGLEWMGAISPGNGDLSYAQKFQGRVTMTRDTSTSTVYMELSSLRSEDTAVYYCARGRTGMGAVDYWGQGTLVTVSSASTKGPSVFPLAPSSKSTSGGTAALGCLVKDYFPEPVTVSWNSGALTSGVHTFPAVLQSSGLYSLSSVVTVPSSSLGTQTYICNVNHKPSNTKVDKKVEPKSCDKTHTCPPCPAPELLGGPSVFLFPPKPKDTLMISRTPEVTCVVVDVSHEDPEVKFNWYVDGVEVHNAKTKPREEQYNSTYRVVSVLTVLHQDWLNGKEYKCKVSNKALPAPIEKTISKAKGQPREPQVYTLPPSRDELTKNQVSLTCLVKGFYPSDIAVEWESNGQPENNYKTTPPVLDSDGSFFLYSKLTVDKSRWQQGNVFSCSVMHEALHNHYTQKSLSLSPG
light: B2 light
modifications: drug-linker MC-GGFG-Compound 141 on cysteine thiols after TCEP reduction, positions not given; DAR 8.0 for the whole antibody
B6: v29456-MC-GGFG-AM-Compound 139 DAR 3.4 (antibody, human IgG1, kappa)
heavy: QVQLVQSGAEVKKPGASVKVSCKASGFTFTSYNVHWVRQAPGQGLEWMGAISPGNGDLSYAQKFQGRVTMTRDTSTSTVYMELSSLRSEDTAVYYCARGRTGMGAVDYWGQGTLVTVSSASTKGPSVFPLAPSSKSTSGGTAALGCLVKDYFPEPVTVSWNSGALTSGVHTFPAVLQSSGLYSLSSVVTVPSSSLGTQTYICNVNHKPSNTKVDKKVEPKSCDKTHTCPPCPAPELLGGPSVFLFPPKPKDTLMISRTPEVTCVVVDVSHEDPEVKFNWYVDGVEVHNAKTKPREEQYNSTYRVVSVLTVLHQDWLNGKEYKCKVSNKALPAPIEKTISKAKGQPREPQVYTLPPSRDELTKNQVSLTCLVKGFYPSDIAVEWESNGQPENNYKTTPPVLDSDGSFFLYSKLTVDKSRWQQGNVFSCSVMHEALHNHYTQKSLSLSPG
light: B2 light
modifications: drug-linker MC-GGFG-AM-Compound 139 on cysteine thiols after TCEP reduction, positions not given; DAR 3.4 for the whole antibody
B7: v29456-MC-GGFG-Compound 141 DAR 3.4 (antibody, human IgG1, kappa)
heavy: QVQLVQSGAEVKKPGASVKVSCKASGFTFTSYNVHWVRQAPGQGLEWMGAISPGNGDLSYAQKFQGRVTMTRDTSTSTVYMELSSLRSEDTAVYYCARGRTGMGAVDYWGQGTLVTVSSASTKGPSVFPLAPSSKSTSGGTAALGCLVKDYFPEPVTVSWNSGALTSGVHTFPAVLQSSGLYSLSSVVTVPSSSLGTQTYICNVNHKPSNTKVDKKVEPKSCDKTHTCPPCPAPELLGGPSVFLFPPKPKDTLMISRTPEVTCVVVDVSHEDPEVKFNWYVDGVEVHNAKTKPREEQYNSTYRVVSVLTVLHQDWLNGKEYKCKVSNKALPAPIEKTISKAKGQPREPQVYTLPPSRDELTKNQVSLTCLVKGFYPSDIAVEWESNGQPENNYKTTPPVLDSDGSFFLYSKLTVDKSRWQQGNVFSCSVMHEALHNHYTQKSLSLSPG
light: B2 light
modifications: drug-linker MC-GGFG-Compound 141 on cysteine thiols after TCEP reduction, positions not given; DAR 3.4 for the whole antibody
B8: v29456-MT-GGFG-Compound 140 DAR 8 (antibody, human IgG1, kappa)
heavy: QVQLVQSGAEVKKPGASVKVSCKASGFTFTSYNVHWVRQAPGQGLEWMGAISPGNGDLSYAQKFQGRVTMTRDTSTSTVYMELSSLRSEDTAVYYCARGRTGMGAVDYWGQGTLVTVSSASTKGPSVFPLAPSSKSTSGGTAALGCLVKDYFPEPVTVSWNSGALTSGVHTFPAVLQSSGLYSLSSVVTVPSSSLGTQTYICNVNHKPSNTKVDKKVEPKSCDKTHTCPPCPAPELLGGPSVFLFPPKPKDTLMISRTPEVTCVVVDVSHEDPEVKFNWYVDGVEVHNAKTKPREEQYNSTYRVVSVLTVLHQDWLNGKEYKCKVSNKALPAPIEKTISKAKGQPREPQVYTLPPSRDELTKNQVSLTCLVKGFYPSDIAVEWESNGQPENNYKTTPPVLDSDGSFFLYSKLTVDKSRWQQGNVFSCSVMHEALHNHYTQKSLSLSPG
light: B2 light
modifications: drug-linker MT-GGFG-Compound 140 on cysteine thiols after TCEP reduction, positions not given; DAR 8 for the whole antibody
B9: Lifastuzumab (v18993, wild-type Fc) (antibody, human IgG1, kappa)
heavy 1: GEVQLVESGGGLVQPGGSLRLSCAASGFSFSDFAMSWVRQAPGKGLEWVATIGRVAFHTYYPDSMKGRFTISRDNSKNTLYLQMNSLRAEDTAVYYCARHRGFDVGHFDFWGQGTLVTVSSASTKGPSVFPLAPSSKSTSGGTAALGCLVKDYFPEPVTVSWNSGALTSGVHTFPAVLQSSGLYSLSSVVTVPSSSLGTQTYICNVNHKPSNTKVDKKVEPKSCDKTHTCPPCPAPELLGGPSVFLFPPKPKDTLMISRTPEVTCVVVDVSHEDPEVKFNWYVDGVEVHNAKTKPREEQYNSTYRVVSVLTVLHQDWLNGKEYKCKVSNKALPAPIEKTISKAKGQPREPQVYVYPPSRDELTKNQVSLTCLVKGFYPSDIAVEWESNGQPENNYKTTPPVLDSDGSFALVSKLTVDKSRWQQGNVFSCSVMHEALHNHYTQKSLSLSPG
heavy 2: not shown
light: GDIQMTQSPSSLSASVGDRVTITCRSSETLVHSSGNTYLEWYQQKPGKAPKLLIYRVSNRFSGVPSRFSGSGSGTDFTLTISSLQPEDFATYYCFQGSFNPLTFGQGTKVEIKRTVAAPSVFIFPPSDEQLKSGTASVVCLLNNFYPREAKVQWKVDNALQSGNSQESVTEQDSKDSTYSLSSTLTLSKADYEKHKVYACEVTHQGLSSPVTKSFNRGEC
notes: Two different heavy chains (heterodimeric Fc)

How the values were obtained:
Biotinylated human FcRn = molecular target: T1, Biotinylated human FcRn (human, UniProt P55899 24-297; P61769 21-119, limits assumed, biotinylated (site not stated)); experiment: SPR (Biacore T200), biotinylated FcRn on neutravidin, antibody as analyte, pH 5.9, steady-state fit
T1 construct: also called Biotinlated human FcRn; human neonatal fragment crystallizable receptor (FcRn)

[1] = molecular target: T2, human FcγR IIB Y160 CD32bY (v5777) (human, UniProt P31994 43-217, limits assumed); experiment: SPR (Biacore T200), antibody captured on protein A, FcγR as analyte, single-cycle, steady-state fit;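 note: five FcγR concentrations per single cycle, 40 s association then 120 s dissociation, responses corrected against a reference flow cell and blank buffer injections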
T2 construct: In-house reagent
T2 sequence (looked up): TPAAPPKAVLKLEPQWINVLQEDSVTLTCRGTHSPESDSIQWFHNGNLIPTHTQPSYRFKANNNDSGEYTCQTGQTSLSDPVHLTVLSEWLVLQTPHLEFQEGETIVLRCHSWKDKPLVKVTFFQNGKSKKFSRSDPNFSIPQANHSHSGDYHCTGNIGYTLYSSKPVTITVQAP
Method: (§1) Approximately 400-600 RUs of each antibody (2 μg/mL) were captured on the protein A surface on flow cell 2, 3 and 4 by injecting at 10 μL/min for 60 s. Flow cell 1 was used as a reference surface. […] Each in-house FcγR with five concentrations were flowed as analyte using single-cycle kinetics strategy. The flow rate of FcγRs was 50 L/min with contact time of 40 sec and dissociation time of 120 sec. For the high affinity FcγRI CD64, multicycle kinetics were applied. The flow rate of the analyte was 100 L/min with contact time of 100 sec and dissociation time of 650 sec. Blank buffer control was injected using the same flow rate and contact time for each cycle. Surface regeneration was accomplished using 10 mM glycine-HCl, pH 1.5 (Cytiva©, BR100354) for 30 sec with a flow rate of 50 μL/min after each cycle. Binding constants and the maximum observed binding signal (Rmax) were determined using the Biacore™ T200 Evaluation software (version 3.0; GE Healthcare). For single-cycle kinetics, blank-subtracted sensorgrams were analyzed using steady state affinity fitting model. For multicycle kinetics, results were fit to the 1:1 Langmuir binding model.

[2] = molecular target: T3, human FcγR IIA H131 CD32aH (v5774) (human, UniProt P12318 34-217, limits assumed); experiment: as above
T3 construct: In-house reagent
T3 sequence (looked up): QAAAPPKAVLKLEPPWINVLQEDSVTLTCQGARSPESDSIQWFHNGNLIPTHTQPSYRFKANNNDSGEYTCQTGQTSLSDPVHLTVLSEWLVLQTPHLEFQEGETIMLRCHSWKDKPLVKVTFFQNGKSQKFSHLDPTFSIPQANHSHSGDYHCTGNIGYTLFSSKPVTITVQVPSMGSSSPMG
Method: as §1

[3] = molecular target: T4, human FcγR IIIA F159 CD16aF (v5772) (human, UniProt P08637 17-208, limits assumed); experiment: as above
T4 construct: In-house reagent
Method: as §1

[4] = molecular target: T5, human FcγR I CD64 (Sino Biological Inc. 10256-H08H) (human, UniProt P12314 16-288); experiment: SPR (Biacore T200), antibody captured on protein A, FcγR as analyte, multicycle, 1:1 fit
T5 construct: Bought reagent
Method: as §1

[5] = molecular target: T6, human sodium-dependent phosphate transporter 2B (NaPi2b) (human, UniProt O95436 1-690); experiment: cell-based or functional assay
T6 sequence: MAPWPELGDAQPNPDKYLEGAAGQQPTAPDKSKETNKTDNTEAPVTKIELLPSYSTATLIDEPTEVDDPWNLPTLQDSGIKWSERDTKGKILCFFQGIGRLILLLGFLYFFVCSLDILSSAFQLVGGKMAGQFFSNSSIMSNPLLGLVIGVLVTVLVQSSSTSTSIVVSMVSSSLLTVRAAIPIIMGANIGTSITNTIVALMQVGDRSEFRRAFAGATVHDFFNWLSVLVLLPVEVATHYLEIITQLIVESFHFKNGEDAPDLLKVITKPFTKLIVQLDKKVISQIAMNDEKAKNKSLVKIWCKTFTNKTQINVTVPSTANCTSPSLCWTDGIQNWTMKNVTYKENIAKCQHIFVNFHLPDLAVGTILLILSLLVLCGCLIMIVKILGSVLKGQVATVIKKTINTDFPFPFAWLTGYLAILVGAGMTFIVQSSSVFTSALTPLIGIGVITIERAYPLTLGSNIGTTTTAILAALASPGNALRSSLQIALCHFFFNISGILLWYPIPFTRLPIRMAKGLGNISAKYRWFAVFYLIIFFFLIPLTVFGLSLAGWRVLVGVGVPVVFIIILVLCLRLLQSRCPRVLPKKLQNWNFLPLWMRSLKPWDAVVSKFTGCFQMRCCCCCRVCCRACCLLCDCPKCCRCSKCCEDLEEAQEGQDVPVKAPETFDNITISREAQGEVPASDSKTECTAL

[6] = molecular target: T6, human sodium-dependent phosphate …; experiment: cell-based or functional assay; remark: listed apart in the source
[7] = molecular target: T6, human sodium-dependent phosphate …; experiment: cell-based or functional assay; remark: listed apart in the source
[8] = molecular target: T6, human sodium-dependent phosphate …; experiment: cell-based or functional assay; remark: listed apart in the source

T5 sequence (P12314 16-288 limits assumed): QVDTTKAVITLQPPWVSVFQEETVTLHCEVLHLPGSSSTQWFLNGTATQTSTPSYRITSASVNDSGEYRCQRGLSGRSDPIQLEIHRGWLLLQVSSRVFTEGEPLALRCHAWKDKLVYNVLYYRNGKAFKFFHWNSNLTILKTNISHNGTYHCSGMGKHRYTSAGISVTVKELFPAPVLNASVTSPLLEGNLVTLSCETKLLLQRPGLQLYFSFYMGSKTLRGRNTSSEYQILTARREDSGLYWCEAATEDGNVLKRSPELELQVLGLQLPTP
T4 sequence (P08637 17-208 limits assumed): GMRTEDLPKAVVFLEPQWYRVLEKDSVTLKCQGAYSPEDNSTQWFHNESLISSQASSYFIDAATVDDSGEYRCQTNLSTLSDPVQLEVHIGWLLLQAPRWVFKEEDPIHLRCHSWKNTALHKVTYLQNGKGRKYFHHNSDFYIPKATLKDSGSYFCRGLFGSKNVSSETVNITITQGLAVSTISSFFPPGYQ
T1 sequence (P55899 24-297 limits assumed, chain 1 of 2): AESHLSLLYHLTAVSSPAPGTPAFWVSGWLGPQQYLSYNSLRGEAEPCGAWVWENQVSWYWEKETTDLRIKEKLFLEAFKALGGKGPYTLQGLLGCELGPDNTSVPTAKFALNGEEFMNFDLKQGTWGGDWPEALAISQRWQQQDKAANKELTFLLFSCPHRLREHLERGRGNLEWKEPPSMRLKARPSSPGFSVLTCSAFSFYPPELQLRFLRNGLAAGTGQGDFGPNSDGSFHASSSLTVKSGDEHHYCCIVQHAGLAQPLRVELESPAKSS
T1 sequence (P61769 21-119 limits assumed, chain 2 of 2): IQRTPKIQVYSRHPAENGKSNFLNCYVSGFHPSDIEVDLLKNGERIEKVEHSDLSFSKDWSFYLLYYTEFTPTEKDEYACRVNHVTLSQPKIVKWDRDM

Row | Binder | EC50, in vitro cytotoxicity, HCC-78 spheroids [5] [nM] | EC50, in vitro cytotoxicity, IGROV-1 spheroids [5] [nM] | EC50, in vitro cytotoxicity, 2D monolayer, HCC-78 [6] [nM] | EC50, in vitro cytotoxicity, 2D monolayer, IGROV-1 [6] [nM] | EC50, in vitro cytotoxicity, IGROV-1 spheroids [7] [nM] | EC50, in vitro cytotoxicity, TOV-21G:HDFa (1:1) spheroids [7] [nM] | EC50, in vitro cytotoxicity, 2D monolayer, IGROV-1 [8] [nM] | also measured
1 | B1 | – | – | – | – | – | – | – | Binding percentage (Biotinylated human FcRn): 20.3%; Kd (Biotinylated human FcRn): 61.8 nM; Binding percentage [1]: 121%; Kd [1]: 5780 nM; Binding percentage [2]: 92.1%; Kd [2]: 1010 nM; Binding percentage [3]: 98.7%; Kd [3]: 2380 nM; Binding percentage [4]: 97.7%
2 | B2 | 0.82 | 0.37 | 0.65 | 1.71 | – | – | – | –
3 | B3 | 0.33 | 0.21 | 0.26 | 1.56 | – | – | – | –
4 | B4 | 0.6 | 0.27 | 0.55 | 0.45 | – | – | – | –
5 | B5 | – | – | – | – | 0.44 | 0.9 | 3.01 | EC50, in vitro cytotoxicity, 2D monolayer, TOV-21G [8]: 0.93 nM
6 | B6 | – | – | – | – | 0.88 | 0.76 | 5.46 | –
7 | B7 | – | – | – | – | 1.31 | 0.99 | 16.4 | –
8 | B8 | 0.19 | 0.25 | 0.6 | – | – | – | – | –
9 | B9 | – | – | – | – | – | – | – | Binding percentage (Biotinylated human FcRn): 25.1%; Kd (Biotinylated human FcRn): 68.2 nM; Binding percentage [1]: 88.6%; Kd [1]: 3740 nM; Binding percentage [2]: 69.6%; Kd [2]: 746 nM; Binding percentage [3]: 71.5%; Kd [3]: 2020 nM; Binding percentage [4]: 76.9%; Kd [4]: 0.0966 nM
